{"source": "patent US9046524B1", "about": "“Method to quantify and measure excess colipase in a pancreatin active pharmaceutical ingredient” (Scientific Protein Laboratories, LLC, priority 2012, dated 2015)", "type_in_all_cases": "biochemical", "key": {"lipase [1]": {"biological_target": "T1, lipase (Sus scrofa, UniProt P00591)", "T1 construct": "purchased USP Rockville, Md; 1494079", "T1 sequence (P00591 1-450)": "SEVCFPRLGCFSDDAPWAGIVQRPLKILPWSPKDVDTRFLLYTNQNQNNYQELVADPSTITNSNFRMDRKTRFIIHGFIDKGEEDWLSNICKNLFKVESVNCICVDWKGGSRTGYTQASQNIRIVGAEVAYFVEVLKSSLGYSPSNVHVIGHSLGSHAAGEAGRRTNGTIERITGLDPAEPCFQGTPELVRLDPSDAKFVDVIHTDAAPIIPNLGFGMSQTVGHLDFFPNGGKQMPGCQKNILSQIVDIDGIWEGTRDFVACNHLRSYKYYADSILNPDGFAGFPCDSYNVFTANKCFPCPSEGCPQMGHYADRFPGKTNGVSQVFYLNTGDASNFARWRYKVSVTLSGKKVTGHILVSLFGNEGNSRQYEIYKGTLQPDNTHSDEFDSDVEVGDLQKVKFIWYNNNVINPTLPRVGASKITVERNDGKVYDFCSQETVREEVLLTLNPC", "assay": "Bile salt (Na-TDC) inhibition of lipase activity against tributyrin", "experimental": "Lipase activity against tributyrin is assayed with different concentration of TDC to determine the CMC for inhibition. The minimum TDC concentration to achieve sufficient inhibition of lipase activity is determined. Five different concentrations (1, 4, 8, 12 and 16 mM) of sodium taurodeoxy-cholate (Na-TDC) are used to determine the CMC of bile salt on two concentrations of lipase (2.5 and 5.0 μg/mL). […] As shown also in FIG. 4, increasing the concentration of bile salt above the CMC results in a progressive inhibition of lipase activity (4-16 mM Na-TDC). […] The lipase inhibition with higher concentration of bile salt (above CMC) is more consistent with the lipase at 5.0 μg/mL when compared to 2.5 μg/mL lipase (FIG. 4)."}, "pancreatin lipase": {"biological_target": "T2, pancreatin lipase (Sus scrofa, UniProt P00591)", "T2 construct": "purchased USP Rockville, Md; 1494079; host or cells: also pancreatin API samples #1, #2, #3 (pancreas extract)", "T2 sequence (P00591 1-450)": "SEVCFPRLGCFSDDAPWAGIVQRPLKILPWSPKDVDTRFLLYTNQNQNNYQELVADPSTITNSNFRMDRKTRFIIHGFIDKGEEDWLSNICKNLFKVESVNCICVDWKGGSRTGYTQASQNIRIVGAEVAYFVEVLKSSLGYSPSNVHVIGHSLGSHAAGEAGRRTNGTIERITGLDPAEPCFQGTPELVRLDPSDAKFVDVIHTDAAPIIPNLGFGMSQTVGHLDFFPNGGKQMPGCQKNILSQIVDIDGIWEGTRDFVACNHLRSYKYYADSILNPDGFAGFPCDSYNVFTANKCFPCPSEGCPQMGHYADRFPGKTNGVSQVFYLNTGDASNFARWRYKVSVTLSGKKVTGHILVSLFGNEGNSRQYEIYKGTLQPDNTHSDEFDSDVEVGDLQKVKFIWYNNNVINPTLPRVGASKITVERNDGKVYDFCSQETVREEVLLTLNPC", "assay": "Orlistat inhibition of lipase activity on GTB substrate", "conditions": "1.0 μM Lipase:Orlistat equal molar, 5 minutes on ice; USP Lipase and pancreatin samples #1, #2, #3; 1 mM Na-TDC", "description": "To check the specificity of the substrate GTB, an inhibition experiment is conducted with the specific inhibitor Orlistat (Tetrahydrolipstatin, THL, Sigma #04139). […] To check the specificity of GTB substrate, bile salt below CMC concentration (1 mM Na-TDC) is chosen to obtain maximum lipase activity.\nThe Orlistat is dissolved in dimethyl sulfoxide (DMSO) to obtain 1.0 mg/mL stock solution. Lipase (USP) and pancreatin samples #1, #2 and #3 are mixed with Orlistat at equal molar concentrations (1.0 μM Lipase:Orlistat) and incubated for 5 minutes on ice. The assays are performed on USP Lipase and pancreatin API samples with and without Orlistat. All the samples are titrated with 0.005 M NaOH for 5 minutes in a glass mixing chamber with 30 mL of substrate mix containing 1 mM Na-TDC at 37° C. temperature and pH 7.5."}, "lipase [2]": {"biological_target": "T3, lipase (Sus scrofa, UniProt P00591)", "T3 construct": "from tissue; host or cells: pancreatin API batches (pancreas extract)", "T3 sequence (P00591 1-450)": "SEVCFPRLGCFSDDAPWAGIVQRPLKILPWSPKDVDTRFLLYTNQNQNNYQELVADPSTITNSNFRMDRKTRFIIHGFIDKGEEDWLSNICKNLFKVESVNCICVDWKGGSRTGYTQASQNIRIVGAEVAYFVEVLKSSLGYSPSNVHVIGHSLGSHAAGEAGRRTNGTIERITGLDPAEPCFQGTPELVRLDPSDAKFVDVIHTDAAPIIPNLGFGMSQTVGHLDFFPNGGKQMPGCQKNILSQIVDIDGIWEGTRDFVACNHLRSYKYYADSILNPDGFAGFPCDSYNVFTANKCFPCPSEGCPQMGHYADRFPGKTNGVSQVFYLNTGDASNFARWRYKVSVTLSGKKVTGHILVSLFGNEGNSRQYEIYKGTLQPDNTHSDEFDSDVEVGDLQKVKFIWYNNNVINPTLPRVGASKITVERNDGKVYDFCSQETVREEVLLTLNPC", "T3 sequence (P02703 23-112 partner)": "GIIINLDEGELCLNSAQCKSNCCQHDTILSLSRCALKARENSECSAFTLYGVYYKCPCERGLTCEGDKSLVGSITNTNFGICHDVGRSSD", "assay": "Reactivation of bile salt-inhibited lipase by added colipase", "experimental": "In yet another embodiment, the effect of colipase on lipase activity and determination of the optimum concentration of colipase to measure the restored lipase activity is studied. The method for colipase determination is based on the principle that lipase inactivated by bile salt is reactivated by colipase (FIG. 1). FIG. 4 supports the theory of reactivation of lipase with the addition of exogenous colipase. As such, different concentrations of bile salt (0, 4, 8, 12 and 16 mM) are tested in the presence of 5.0 μg of lipase per reaction to measure the lipase activity. To each reaction beaker, a different amount of colipase (2.5, 5.0 and 10 μg) is added to the assay mixture prior to the lipase.\nHowever, by adding different concentration of exogenous colipase (Sigma Cat #C3028), lipase activity is restored. In FIG. 5, 2.5 μg colipase, 5.0 μg colipase, and 10.0 μg colipase bars with 4, 8, 12 and 16 mM Na-TDC represent the lipase activity due to reactivation of lipase from addition of exogenous colipase. The presence of colipase at higher concentration will inhibit lypolysis. […] Although the main function of colipase is to restore the activity of the bile salt-inhibited lipase, colipase also has been reported to affect the activity of lipase in absence of bile salts by stabilizing lipase and decreasing its rate of inactivation in the presence of substrate (see Borgstrom and Brockman, 1984). […] Results reveal the most favorable amount of colipase to recover the inhibited lipase is 2.5 μg per assay with 4 mM Na-TDC.\nIn still another embodiment, a separate study is performed with differing amounts of lipase (2.5, 5.0 and 10 μg per reaction) to determine the maximum recovery of lipase activity in the presence of 4 mM Na-TDC and 2.5 μg added colipase. The colipase content of the sample is determined as a difference between two titration values, the blank with lipase and the test with lipase plus added colipase (test values−blank values). The accuracy of the determination is dependent on the relative proportion between lipase and colipase.\nThe activity in the absence of added colipase increases with increase in lipase amount, due to presence of endogenous colipase. Further, the lipase activity increases by adding exogenous colipase."}}, "data": [{"molecule": "C[C@H](CCC(=O)NCCS(=O)(=O)[O-])[C@H]1CC[C@H]2[C@@H]3CC[C@@H]4C[C@H](O)CC[C@]4(C)[C@H]3C[C@H](O)[C@]12C.O.[Na+]", "note": "[Na-TDC, sodium taurodeoxycholate hydrate]", "values": [{"measurement": "effect on lipase activity below CMC", "setting": "lipase [1]; 1 mM Na-TDC compared to 0 mM", "value": "enhancement in lipase activity"}, {"measurement": "effect on lipase activity above the CMC", "setting": "lipase [1]; 4, 8, 12 & 16 mM Na-TDC, lipase 2.5 and 5.0 μg/mL", "value": "almost complete inhibition of lipase activity"}]}, {"molecule": "CCCCCCCCCCC[C@@H](C[C@@H]1OC(=O)[C@H]1CCCCCC)OC(=O)[C@H](CC(C)C)NC=O", "note": "[Orlistat]", "values": [{"measurement": "inhibition of lipase activity", "setting": "pancreatin lipase", "value": 90, "unit": "%"}]}, {"molecule": "colipase: Colipase Standard: Sigma Colipase from porcine pancreas Cat #C3028 (protein, UniProt P02703 23-112, looked up) Colipase: GIIINLDEGELCLNSAQCKSNCCQHDTILSLSRCALKARENSECSAFTLYGVYYKCPCERGLTCEGDKSLVGSITNTNFGICHDVGRSSD", "values": [{"measurement": "restored lipase activity", "setting": "lipase [2]; 2.5 μg colipase, 4 mM Na-TDC, 10.0 μg lipase", "value": 0.23, "unit": "fold"}, {"measurement": "increase in restored lipase activity", "setting": "lipase [2]; 2.5 μg colipase, 4 mM Na-TDC, 2.5 and 5.0 μg of lipase", "value": "two-fold"}, {"measurement": "increase in lipase activity by addition of colipase", "setting": "lipase [2]; 2.5 μg colipase, without bile salt, 5.0 μg lipase", "value": "about 1.5 fold"}, {"measurement": "restored lipase activity with 5 and 10 μg colipase, fold lower than with 2.5 μg colipase", "setting": "lipase [2]; 16 mM TDC", "value": 4, "unit": "fold"}]}]}
